B1: HDV Ribozyme (parent)
chain: GGCCGGCAUGGUCCCAGCCUCCUCGCUGGCGCCGGCUGGGCAACAUUCCGAGGGGACCGUCCCCUCGGUAAUGGCGAAUGGGACCCA

The text below walks through data of the RNAGym collection of RNA variant scans (doi:10.7554/elife.80360).

In the data set the parent is B1. The data set can be described thus: self-cleavage, relative activity (ratio to wild type); higher = more cleavage; co-transcriptional.
In the case of U37C G80U, the self-cleavage stood at 0.224.

As to U37G C86G, the self-cleavage worked out at 0.111. Under U37G C86U stands 0.249. For the variant G38U A87G, the self-cleavage amounted to 0.16. The same measure for U37C G38A: 0.0354.

For the variant G38C G74A, the self-cleavage amounted to 0.0936. With C36U G52U, the self-cleavage was 0.72. Under U37A C58G stands 0.369; under U37C C86A, 0.974; under G39A G73A, 0.0801. Turning to G39A G73U, the self-cleavage was 0.0845. As to G39C C41A, the self-cleavage stood at 0.802.

In the case of G39C C41U, the self-cleavage came to 0.554. Take G38U G68A: the self-cleavage was determined as 0.163. The same measure for U37A C85A: 0.332; for U37C A42C: 0.115; for G39C U65C: 0.374. Under G39C U65G stands 0.262; under G38C G81C, 0.0354. On to G38C G81U, for which the self-cleavage worked out at 0.0779. On to U37C A45U, for which the self-cleavage was found to be 0.639.

On to G39C C57U, for which the self-cleavage is 0.345.

Turning to G39C C57G, the self-cleavage was found to be 0.415.

For the variant U37G G39C, the self-cleavage stood at 0.185. Under U37A G55U stands 0.0723; under G38C C84G, 0.0489. Under G38A C58G stands 0.141; under G38A C58A, 0.115; under G38U C66G, 0.0764. The same measure for G39A U47C: 0.208; for G38U C84G: 0.115. Regarding G38C G73A, the self-cleavage stood at 0.185. G38U G50C: the self-cleavage stood at 0.225. The same measure for G39C U47A: 0.243. Take G38U A42C: the self-cleavage is 0.0941. On to G39A G68U, for which the self-cleavage was 0.554.

As for G39A G68C, the self-cleavage stood at 0.441. In the case of G38C G40U, the self-cleavage was 0.0332. The same measure for U37G A51G: 0.0639; for G39C U69G: 0.133.

As for U37G G59C, the self-cleavage was found to be 0.192. Regarding G39U C64G, the self-cleavage stood at 0.845.

With G39U C64U, the self-cleavage was 0.597.

On to G38A C44U, for which the self-cleavage came out at 0.136. With G38A C44A, the self-cleavage turned out to be 0.0678.

Turning to G38C U60C, the self-cleavage was found to be 0.231. For G38C U60A, the self-cleavage came out at 0.38. Under U37A U47G stands 0.222; under U37G C84G, 0; under U37C A56C, 1.11. The same measure for G38A U79G: 0.151; for G39A A83C: 0.277; for G38U C63G: 0.0978. Under G38U C63U stands 0.24; under G38U C63A, 0.159. As to G38A G59U, the self-cleavage was found to be 0.182. The same measure for G38A G59C: 0.0256; for U37G G54A: 0.0755; for G38C G82U: 0.162. Under G38C G82C stands 0.222. Under G38A G54U stands 0.073. As for G38A G54C, the self-cleavage turned out to be 0.237.

As for G38C C58U, the self-cleavage came out at 0.408. Consider G39U C66A, for which the self-cleavage worked out at 0.739. The same measure for G39A A42U: 0.272; for G39A A42G: 0.0292; for G39A C44A: 0.0405.

Consider G39A C44G, for which the self-cleavage amounted to 0.108.

Take G38C C66A: the self-cleavage is 0.189. Turning to G38C C66G, the self-cleavage worked out at 0.203. Under U37A C49A stands 0.161; under U37G G74U, 0.213; under U37A G74U, 0.208. Under G38C C44A stands 0.0354. As to U37G U60A, the self-cleavage was 0.0504. The same measure for C36U G67U: 0.431; for C36U G67A: 0.712; for G39A A77C: 0.108. In the case of G39A A77U, the self-cleavage came out at 0.176.

Consider G38A A45U, for which the self-cleavage was found to be 0.107. Consider G38A A45G, for which the self-cleavage is 0.155. Under U37C C84U stands 0.655. Under G39U C57A stands 0.941; under G39U C57U, 0.831. Take U37G A70C: the self-cleavage was found to be 0.312. The same measure for G39U A77C: 0.233; for G39U A77G: 0.564; for G39U C41A: 0.719. With G38A C49G, the self-cleavage was found to be 0.151.

On to G38A C49A, for which the self-cleavage stood at 0.172.

Consider G39U A43G, for which the self-cleavage is 0.0811. The same measure for G39C A87U: 0.229; for U37A G76U: 0.469; for G38U C61A: 0.248. The same measure for U37A C63U: 0.339; for G39C A77G: 0.243; for U37G U72C: 0.119.

As for U37G U72A, the self-cleavage came to 0. Under G39C C66U stands 0.136; under G38U U65C, 0.415; under G39C G40U, 0.487. Under G39C G40C stands 0.215.

Turning to U37A G52C, the self-cleavage was found to be 0.213.

U37A G54U: the self-cleavage was 0.245. As to U37A G54A, the self-cleavage turned out to be 0.104. Consider U37G G53A, for which the self-cleavage was determined as 0.147. In the case of G38A A77G, the self-cleavage was found to be 0.0852.

As for G38A A77U, the self-cleavage was 0.0845. Regarding U37A C57A, the self-cleavage was 0.212. The same measure for U37A C57U: 0.146; for G38A G52A: 0.173; for G38A G52C: 0.0692. Turning to G39A C63G, the self-cleavage amounted to 0.352. The same measure for G39A C63A: 0.538; for U37G A45U: 0; for U37G C62A: 0.0594. The same measure for G38U C62A: 0.317.

For the variant G38U C62G, the self-cleavage came out at 0.0831. Take G39A A45U: the self-cleavage was determined as 0.389. The same measure for U37G C57A: 0.0978; for U37A G67C: 0.128; for G38A A43G: 0.155. Under G38U A70U stands 0.277.

Take U37G C85U: the self-cleavage was found to be 0.161. Regarding G39C C58A, the self-cleavage is 0.521.

In the case of G39C C58U, the self-cleavage turned out to be 0.0923. Under U37A G53C stands 0.162.

As to G39A C86A, the self-cleavage worked out at 0.53.

As for C36U U69G, the self-cleavage was determined as 0.519. Under G38U G74A stands 0.0248.

Consider G38C C86G, for which the self-cleavage was found to be 0.217. Under G38A A70G stands 0; under G38U C85U, 0.269. For the variant G38C A87C, the self-cleavage was 0.26.

Turning to U37A U69G, the self-cleavage was determined as 0.369.

Regarding G38U A45C, the self-cleavage came to 0.181. Under G38C U46C stands 0.0923; under G38C U46G, 0.095; under G39C A78G, 0.0573. With G39C A78C, the self-cleavage is 0.125. The same measure for C36U G50U: 0.841.

Regarding U37A C48A, the self-cleavage was 0.208. The same measure for U37C G74U: 0.332. C36U G81C: the self-cleavage came to 0.12. Under C36U G81U stands 0.29. The same measure for G39C C49U: 0.166; for G39C C49A: 0.237. Under G38A G74C stands 0.161. Turning to U37G U46C, the self-cleavage stood at 0.128. The same measure for U37A C86A: 0.256; for U37A C86U: 0.35.

With G38U G39C, the self-cleavage was found to be 0. The same measure for G38A A56C: 0.13; for G38A A56U: 0.218; for G38U U46A: 0.106.

Regarding G39U A71U, the self-cleavage turned out to be 0.431. G38C C57U: the self-cleavage was 0.282. Consider G39A G55A, for which the self-cleavage is 0.683.

In the case of G39A G55U, the self-cleavage came out at 0.356. Under G39A C85U stands 0.465; under G39A C85A, 0.332. U37G G76C: the self-cleavage stood at 0.142. Under U37G G76U stands 0.104.

For G39U C62A, the self-cleavage is 0.623.

Take G39U C62G: the self-cleavage is 0.408. The same measure for G38U A56C: 0.266; for G38A G55C: 0.218.
